Data on 1 molecule can be found in article PMC12562432, “G4 Oligonucleotide-Based Chaperones of Heterogeneous Nuclear Ribonucleoprotein A1”.

For orientation: Kd means the constant that tells how readily two partners part at equilibrium. Low readings indicate tighter binding, high ones weaker binding.

In the series the target is hnRNP A1 (UniProt P09651 1-251+304-372, internal_change). Briefly: MST; 150 mM KCl; MST: 100 nM RED-labelled hnRNP A1, oligonucleotide titrated, 10 min incubation, working buffer with 150 mM KCl (40 mM HEPES-KOH pH 7.0 stated for the other assays); Hill model; temperature not stated. The conditions noted are these: tags: RED dye label (MST); parallel G4 loop on short duplex stem GCUGC/GCAGC, 5' single-stranded UCAGUU.
Sequence of hnRNP A1 (P09651 other isoform, or with tags, fused parts or gaps): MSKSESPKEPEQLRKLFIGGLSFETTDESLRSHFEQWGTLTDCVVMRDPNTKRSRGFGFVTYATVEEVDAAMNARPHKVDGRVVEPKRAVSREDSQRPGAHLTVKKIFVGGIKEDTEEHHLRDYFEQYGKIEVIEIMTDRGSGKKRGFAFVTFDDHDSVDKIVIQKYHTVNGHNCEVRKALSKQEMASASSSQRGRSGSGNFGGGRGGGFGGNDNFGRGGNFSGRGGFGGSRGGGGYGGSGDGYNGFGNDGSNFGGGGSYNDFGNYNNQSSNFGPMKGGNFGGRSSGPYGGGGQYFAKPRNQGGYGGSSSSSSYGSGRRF

UCAGUUGCUGCGGGUGGGUGGGUGGGGCAGC (structured_RNA) [chap-RNA] returned a Kd of 6 ± 1 µM.
